Source: patent US20020111475A1 (IMMUNEX, published 2002)
Positions count from the first letter of the chain named. Names may count otherwise.

Key:
[1] = biological target: T1, flt3 on murine WWF7 cells; assay: cell-based or functional assay
T1 sequence (Q00342 whole entry, looked up): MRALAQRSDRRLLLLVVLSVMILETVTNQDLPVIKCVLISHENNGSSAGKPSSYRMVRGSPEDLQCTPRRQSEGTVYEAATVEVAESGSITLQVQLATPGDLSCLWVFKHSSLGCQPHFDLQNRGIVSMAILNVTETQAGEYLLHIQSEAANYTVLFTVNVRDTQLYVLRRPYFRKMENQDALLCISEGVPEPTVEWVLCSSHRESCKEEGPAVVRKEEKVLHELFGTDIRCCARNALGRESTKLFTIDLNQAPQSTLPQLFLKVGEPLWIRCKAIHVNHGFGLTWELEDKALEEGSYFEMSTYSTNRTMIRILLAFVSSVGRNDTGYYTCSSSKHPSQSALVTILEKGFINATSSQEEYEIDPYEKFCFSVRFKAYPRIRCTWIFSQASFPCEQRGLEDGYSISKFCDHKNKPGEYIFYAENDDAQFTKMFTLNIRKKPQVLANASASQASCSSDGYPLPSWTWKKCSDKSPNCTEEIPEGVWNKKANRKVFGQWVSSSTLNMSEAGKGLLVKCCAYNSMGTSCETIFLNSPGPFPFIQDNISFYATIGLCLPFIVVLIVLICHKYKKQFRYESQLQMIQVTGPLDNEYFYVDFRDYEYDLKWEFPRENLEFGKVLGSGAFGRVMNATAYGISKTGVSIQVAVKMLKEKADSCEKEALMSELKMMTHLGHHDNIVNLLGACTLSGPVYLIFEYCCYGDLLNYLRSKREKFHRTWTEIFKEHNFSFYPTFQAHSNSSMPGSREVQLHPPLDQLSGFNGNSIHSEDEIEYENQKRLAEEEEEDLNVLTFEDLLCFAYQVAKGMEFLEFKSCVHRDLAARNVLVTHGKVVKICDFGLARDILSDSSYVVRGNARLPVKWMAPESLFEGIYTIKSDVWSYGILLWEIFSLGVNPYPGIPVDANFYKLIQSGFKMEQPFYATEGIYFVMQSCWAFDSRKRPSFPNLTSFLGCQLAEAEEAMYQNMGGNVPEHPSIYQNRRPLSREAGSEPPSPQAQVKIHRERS

[2] = biological target: T2, human flt3 on BAF/hflt3 cells (BAF-BO3 cells transfected with human flt3 cDNA) (human, UniProt P36888 27-993); assay: cell-based or functional assay
T2 sequence (looked up): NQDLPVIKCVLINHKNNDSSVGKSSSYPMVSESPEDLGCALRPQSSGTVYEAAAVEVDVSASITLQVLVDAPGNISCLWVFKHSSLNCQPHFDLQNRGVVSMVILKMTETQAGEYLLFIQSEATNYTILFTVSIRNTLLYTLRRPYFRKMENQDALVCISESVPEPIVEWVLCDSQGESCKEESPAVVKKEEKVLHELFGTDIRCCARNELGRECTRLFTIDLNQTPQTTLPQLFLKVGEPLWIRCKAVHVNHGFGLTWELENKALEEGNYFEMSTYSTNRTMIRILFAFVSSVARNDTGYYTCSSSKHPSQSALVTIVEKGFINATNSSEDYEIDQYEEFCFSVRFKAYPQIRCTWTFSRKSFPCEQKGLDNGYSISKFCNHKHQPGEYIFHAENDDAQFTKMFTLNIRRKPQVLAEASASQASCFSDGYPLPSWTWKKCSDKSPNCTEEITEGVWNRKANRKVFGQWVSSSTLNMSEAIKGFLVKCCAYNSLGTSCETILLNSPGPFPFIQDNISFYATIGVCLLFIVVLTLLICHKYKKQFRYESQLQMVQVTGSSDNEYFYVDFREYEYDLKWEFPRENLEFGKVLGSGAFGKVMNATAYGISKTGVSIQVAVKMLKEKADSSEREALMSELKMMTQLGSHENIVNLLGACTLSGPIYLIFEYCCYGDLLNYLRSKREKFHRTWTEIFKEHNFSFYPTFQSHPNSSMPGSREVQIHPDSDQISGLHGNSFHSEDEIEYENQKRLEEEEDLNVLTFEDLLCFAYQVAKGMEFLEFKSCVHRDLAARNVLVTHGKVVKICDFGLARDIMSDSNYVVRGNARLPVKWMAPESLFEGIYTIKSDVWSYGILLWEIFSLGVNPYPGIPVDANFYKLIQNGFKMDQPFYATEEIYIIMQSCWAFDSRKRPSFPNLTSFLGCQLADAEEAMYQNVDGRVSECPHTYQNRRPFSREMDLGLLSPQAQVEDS

[3] = biological target: T2, human flt3 on BAF/hflt3 cells (BAF-BO3 …); assay: inhibition of 125I-flt3-L binding to BAF/hflt3 cells, purified protein
Method: Binding assays were performed using a phthalate oil separation method as described previously for murine ¹²⁵I-GM-CSF (Park et al., J. Biol. Chem. 261:4177-4183 (1986)). Briefly, BAF-BO3 cells transfected with human flt3 cDNA (0.5-1×10⁶) were incubated with serial dilutions of ¹²⁵I-flt3-L in binding medium (RPMI 1640, 2.5% bovine serum albumin, 0.2% NaN3, 20 mM Hepes, pH 7.2) in 96 well microtiter plates maintained on a mini-orbital shaker (Bellco) at 37° C. for 90 minutes. Inhibition binding assays were carried out by holding the radiolabeled flt3-L concentration constant at 0.3 nM, while the concentration of unlabeled competitor proteins ranged from 150 nM to 0.001 nM. The ratio of Kdi of mutant to wild type flt3-L, determined in at least duplicate, in a given assay was averaged over at least three independent assays and the standard error of the mean (SEM) reported. […] For this assay, cells expressing human flt3 (BAF/hflt3 cells) were constructed from BAF/B03 cells, using a procedure previously described for producing BAF/B03 cells expressing the murine flt3 (Lyman et al., Cell 75:1157-1167 (1993)). Expression of human flt3 by BAF/hflt3 cells was confirmed by examining the capacity of the cells to proliferate in response to soluble flt3-L, and by flow cytometric analysis using biotinylated flt3-L.
^aThe specific activity of purified mutant or wild type protein was determined by taking the ratio of proliferation activity in BAF/hflt3 cells (units/ml) to concentration of flt3-L protein as determined by amino acid composition (ng/ml). The ratio of specific activity of mutant to wild type flt3-L is averaged over three independent assays, and the standard error of the mean (SEM) is reported. ^bThe Kdifor wild type protein is 61 ± 19 pM (n = 2). The ratio of Kₐᵢ of mutant to wild type flt3-L is averaged over two independent assays and the standard deviation is reported.

B1: flt3-L mutant F15L (ligand)
chain: LSGTQDCSFQHSPISSDLAVKIRELSDYLLQDYPVTVASNLQDEELCGGLWRLVLAQRWMERLKTVAGSKMQGLLERVNTEIHFVTKCAFQPPPSCLRFVQTNISRLLQETSEQLVALKPWITRQNFARCLELQCQPDSSTLPPPWSPRPLEATAPTAPQPPLLLLLLLPVGLLLLAAAWCLHWQRTRRRTPRPGEQVPPVPSPQDLLLVEH
- Sp.Ac. MUT / Sp.Ac. WT (WWF7 cell proliferation units/ml per flt3-L ng/ml by ELISA, yeast supernatant) [1]: 0 ratio to wild type

B2: flt3-L mutant P10S (ligand)
chain: B1 chain with P13S, L18F
- Sp.Ac. MUT / Sp.Ac. WT (WWF7 cell proliferation units/ml per flt3-L ng/ml by ELISA, yeast supernatant) [1]: 0 ratio to wild type

B3: flt3-L mutant S13F (ligand)
chain: B1 chain with S16F, L18F
- Sp.Ac. MUT / Sp.Ac. WT (WWF7 cell proliferation units/ml per flt3-L ng/ml by ELISA, yeast supernatant) [1]: 0 ratio to wild type

B4: flt3-L mutant S9G (ligand)
chain: B1 chain with S12G, L18F
- Sp.Ac. MUT / Sp.Ac. WT (WWF7 cell proliferation units/ml per flt3-L ng/ml by ELISA, yeast supernatant) [1]: 0.13 ratio to wild type

B5: flt3-L mutant R20C (ligand)
chain: B1 chain with L18F, R23C
- Sp.Ac. MUT / Sp.Ac. WT (WWF7 cell proliferation units/ml per flt3-L ng/ml by ELISA, yeast supernatant) [1]: 0.11 ratio to wild type

B6: flt3-L mutant D3G (ligand)
chain: B1 chain with D6G, L18F
- Sp.Ac. MUT / Sp.Ac. WT (WWF7 cell proliferation units/ml per flt3-L ng/ml by ELISA, yeast supernatant) [1]: 0.81 ratio to wild type

B7: flt3-L mutant F81L (ligand)
chain: B1 chain with L18F, F84L
- Sp.Ac. MUT / Sp.Ac. WT (WWF7 cell proliferation units/ml per flt3-L ng/ml by ELISA, yeast supernatant) [1]: 0.06 ratio to wild type

B8: flt3-L mutant P90S (ligand)
chain: B1 chain with L18F, P93S
- Sp.Ac. MUT / Sp.Ac. WT (WWF7 cell proliferation units/ml per flt3-L ng/ml by ELISA, yeast supernatant) [1]: 0.09 ratio to wild type

B9: flt3-L mutant R55L (ligand)
chain: B1 chain with L18F, R58L
- Sp.Ac. MUT / Sp.Ac. WT (WWF7 cell proliferation units/ml per flt3-L ng/ml by ELISA, yeast supernatant) [1]: 0.29 ratio to wild type

B10: flt3-L mutant F124L (ligand)
chain: B1 chain with L18F, F127L
- Sp.Ac. MUT / Sp.Ac. WT (WWF7 cell proliferation units/ml per flt3-L ng/ml by ELISA, yeast supernatant) [1]: 0.22 ratio to wild type

B11: flt3-L mutant V75A (ligand)
chain: B1 chain with L18F, V78A
- Sp.Ac. MUT / Sp.Ac. WT (WWF7 cell proliferation units/ml per flt3-L ng/ml by ELISA, yeast supernatant) [1]: 0.18 ratio to wild type

B12: flt3-L mutant A64T (ligand)
chain: B1 chain with L18F, A67T
- Sp.Ac. MUT / Sp.Ac. WT (WWF7 cell proliferation units/ml per flt3-L ng/ml by ELISA, yeast supernatant) [1]: 0.09 ratio to wild type

B13: flt3-L mutant V113E (ligand)
chain: B1 chain with L18F, V116E
- Sp.Ac. MUT / Sp.Ac. WT (WWF7 cell proliferation units/ml per flt3-L ng/ml by ELISA, yeast supernatant) [1]: 0.8 ratio to wild type

B14: flt3-L mutant R95C (ligand)
chain: B1 chain with L18F, R98C
- Sp.Ac. MUT / Sp.Ac. WT (WWF7 cell proliferation units/ml per flt3-L ng/ml by ELISA, yeast supernatant) [1]: 0.26 ratio to wild type

B15: flt3-L mutant F15Y (ligand)
chain: B1 chain with L18Y
- Sp.Ac. MUT / Sp.Ac. WT (WWF7 cell proliferation units/ml per flt3-L ng/ml by ELISA, yeast supernatant) [1]: 0.19 ratio to wild type

B16: flt3-L mutant F87L (ligand)
chain: B1 chain with L18F, F90L
- Sp.Ac. MUT / Sp.Ac. WT (WWF7 cell proliferation units/ml per flt3-L ng/ml by ELISA, yeast supernatant) [1]: 0.01 ratio to wild type

B17: flt3-L mutant R55C (ligand)
chain: B1 chain with L18F, R58C
- Sp.Ac. MUT / Sp.Ac. WT (WWF7 cell proliferation units/ml per flt3-L ng/ml by ELISA, yeast supernatant) [1]: 0.05 ratio to wild type

B18: flt3-L mutant S13P (ligand)
chain: B1 chain with S16P, L18F
- Sp.Ac. MUT / Sp.Ac. WT (WWF7 cell proliferation units/ml per flt3-L ng/ml by ELISA, yeast supernatant) [1]: 0 ratio to wild type

B19: flt3-L mutant F124S (ligand)
chain: B1 chain with L18F, F127S
- Sp.Ac. MUT / Sp.Ac. WT (WWF7 cell proliferation units/ml per flt3-L ng/ml by ELISA, yeast supernatant) [1]: 0 ratio to wild type

B20: flt3-L multiple mutant K84E/Q122R (ligand)
chain: LSGTQDCSFQHSPISSDFAVKIRELSDYLLQDYPVTVASNLQDEELCGGLWRLVLAQRWMERLKTVAGSKMQGLLERVNTEIHFVTECAFQPPPSCLRFVQTNISRLLQETSEQLVALKPWITRRNFARCLELQCQPDSSTLPPPWSPRPLEATAP
notes: also called double mutant K84E/Q122R
- Sp.Ac. MUT / Sp.Ac. Wt (BAF/hflt3 cell proliferation units/ml per ng/ml purified protein) [2]: 2.9 ratio to wild type
- Kai MUT / Kai Wt [3]: 3.4 ratio to wild type

B21: flt3-L quadruply substituted mutant L-3H/H8Y/K84E/Q122R (ligand)
chain: B20 chain with L1H, H11Y
notes: Constructed by PCR mutagenesis from K84E/Q122R, expressed in yeast and purified
- Sp.Ac. MUT / Sp.Ac. Wt (BAF/hflt3 cell proliferation units/ml per ng/ml purified protein) [2]: 3 ratio to wild type
- Kai MUT / Kai Wt [3]: 8.6 ratio to wild type

B22: flt3-L mutant H8Y (ligand)
chain: B20 chain with H11Y, E87K, R125Q
notes: yeast supernatant and purified protein (dimer)
- Sp.Ac. MUT / Sp.Ac. Wt (BAF/hflt3 cell proliferation units/ml per ng/ml purified protein) [2]: 2.1 ratio to wild type
- Kai MUT / Kai Wt [3]: 2.8 ratio to wild type
